Data from patent US20230174595A1.

How the values were obtained:
[1] = molecular target: recombinant His-tagged HIV-1 gp120 Q769.h5 (Clade A) (HIV-1 strain Q769.h5); assay: SPR, His-tagged gp120 on NTA chip (FIG. 7)
[2] = molecular target: recombinant His-tagged HIV-1 gp120 Q769.h5 (Clade A) (HIV-1 strain Q769.h5)

Row | Substance | fold increase in affinity compared to AH [1] [fold] | Kd [2] [µM]
1 | AvFc lectibody (Avaren fused via a linker to the Fc region of human IgG1) (Fc fusion) | 10 | 0.0042
2 | actinohivin (AH), wild type (from UniProt Q9KWN0 47-160) | – | 0.0296
